{"source": "patent KR20200072008A", "binders": {"B1": {"name": "D3 (antibody, V domains shown)", "VH": "EVQLEESGGGLVQPGGSLKLSCAASGFTFSNYGMSWVRQTPDKRLELVATINSNGGTTYYPDSVKGRFTISRDNAKNTLYLQMSSLKSEDSAMYYCARDRDAMDYWGQGTSVTVSS", "VL": "DVLMTQTPLSLPVSLGDQASISCRSSQSIVNSHGNTYLEWYLQKPGQSPKLLIYKVSNRFSGVPDRFSGSGSGTDFTLKISRVEAEDLGVYYCFQGSHVPWTFGGGTKLEIK"}, "B2": {"name": "B4 (antibody, V domains shown)", "VH": "EVKLVESGGGLVKPGGSLKLSCAASGFTFSNYGMSWVRQTPEKRLEWVATISSGGSYTYYPDSVKGRFTISRDNAKNTLYLQMSSLRSEDTAMYYCARHEGGGNPYFDYWGQGTTLTVSS", "VL": "B1 VL with I29L, N31H, H33N, E39H, Y92F, F94S, G96N, S97T, H98L"}, "B3": {"name": "D2 (antibody, V domains shown)", "VH": "DVKLQESGPGLVKPSQSLSLTCSVTGYSITSGYYWNWIRQFPGNKLEWMGYIRYDGSNNYNPSLKNRISITRDTSKNQFFLKLNSVTTEDTASYYCARDRDSSYYFDYWGQGTALTVSS", "VL": "DIVMTQSSSYLSVSLGGRVTITCKASDHINNWLAWYQQKPGNAPRLLISDTTSLETGVPSRFSGSGSGKDYTLSITSLQTEDVATYYCQQYWSAPPTFGGGTKLEIK"}, "B4": {"name": "C4 (antibody, V domains shown)", "VH": "DVKLQESGPGLVKPSQSLSLTCTVTGYSITSDYAWNWIRQFPGNKLEWMGYISYSVGTRYNPSLKSRISITRDTSKNQFFLLLKSVTNEDTATYFCARKGEYGFAYWGQGTLVTVSA", "VL": "DIVMTQSPASLAVSLGQRATISCRASKSVSTSGYSYMHWYQQKPGQPPKLLIYLASNLESGVPARFSGSGSGTDFTLNIHPVEEEDAATYYCQHSRELPLTFGAGTKLELK"}, "B5": {"name": "C14 (antibody, V domains shown)", "VH": "EVKLVESGGGLVQPKGSLKLSCAASGFTFNTNAMNWVRQAPGKGLEWVARIRSKSDNYATYYADSVKDRFTISRDDSPSMLYLQMNNLKTEDTAMYYCVYGRSYGGLGYWGQGTLVTVSA", "VL": "B4 VL with M4L, M37V"}, "B6": {"name": "C24 (antibody, V domains shown)", "VH": "EVKLVESGGGLVQPKGSLKLSCAASGYTFNTYAMNWVRQAPGKGLEWVARIRSKSNNYTTYYADSVKDRFTISRDDSQSMLYLQINNLKTEDTAMYYCVGQILYYYVGSPAWFAYWGQGTLVTVSA", "VL": "B4 VL with Y53F, L100W, A104G, L110I"}, "B7": {"name": "C16 (antibody, V domains shown)", "VH": "EVQLQQSGAELARPGASVQMSCKAFGYTFTNYTMHWVRQRPGQGLEWIGFINPSSDYTNYNQKFKDKATLSADKSSSTAYMQLSSLTSEDSAVYYCARRIFYNGRTYAAMDYWGQGTSVTVSS", "VL": "B4 VL with T31S"}, "B8": {"name": "C7 (antibody, V domains shown)", "VH": "B5 VH with E1Q, K3Q, S7T, D56N, P78Q, M80L, G108S", "VL": "B4 VL with T31S"}}, "note": "Where a chain is given by its changes, count along the chain named.", "data": [{"target": "GST-SNAP25 FL (UniProt P60880)", "sequence (P60880 whole entry)": "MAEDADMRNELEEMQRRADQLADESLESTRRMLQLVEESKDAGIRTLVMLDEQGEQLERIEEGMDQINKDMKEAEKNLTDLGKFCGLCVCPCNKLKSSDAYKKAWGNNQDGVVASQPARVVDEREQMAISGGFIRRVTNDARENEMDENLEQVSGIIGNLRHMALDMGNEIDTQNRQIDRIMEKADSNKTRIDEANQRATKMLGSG", "experiment": "not given", "values": [{"binder": "B1", "A450 with SNAP25 FL": 0.125}, {"binder": "B2", "A450 with SNAP25 FL": 2.16}, {"binder": "B3", "A450 with SNAP25 FL": 1.45}, {"binder": "B4", "A450 with SNAP25 FL": 0.001}, {"binder": "B5", "A450 with SNAP25 FL": 0.001}, {"binder": "B6", "A450 with SNAP25 FL": 0.001}, {"binder": "B7", "A450 with SNAP25 FL": 0.001}, {"binder": "B8", "A450 with SNAP25 FL": 0.001}]}, {"target": "GST-SNAP25 197 (UniProt P60880)", "sequence (P60880 1-197 limits assumed)": "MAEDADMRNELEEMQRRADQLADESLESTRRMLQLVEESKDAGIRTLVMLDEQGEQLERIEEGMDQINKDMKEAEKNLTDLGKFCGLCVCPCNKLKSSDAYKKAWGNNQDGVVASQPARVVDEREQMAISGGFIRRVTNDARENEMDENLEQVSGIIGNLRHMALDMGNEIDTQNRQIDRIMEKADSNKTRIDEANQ", "experiment": "not given", "values": [{"binder": "B1", "A450 with SNAP25 197": 1.62}, {"binder": "B2", "A450 with SNAP25 197": 1.8}, {"binder": "B3", "A450 with SNAP25 197": 0.048}, {"binder": "B4", "A450 with SNAP25 197": 0.919}, {"binder": "B5", "A450 with SNAP25 197": 0.953}, {"binder": "B6", "A450 with SNAP25 197": 0.973}, {"binder": "B7", "A450 with SNAP25 197": 0.996}, {"binder": "B8", "A450 with SNAP25 197": 1.2}]}, {"target": "GST-SNAP25 197 (UniProt P60880)", "experiment": "direct ELISA; A450 on GST-SNAP25 197 divided by A450 on GST-SNAP25 FL", "values": [{"binder": "B1", "Ratio 197/206": 12.9}, {"binder": "B2", "Ratio 197/206": 0.83}, {"binder": "B3", "Ratio 197/206": 0.03}, {"binder": "B4", "Ratio 197/206": 919}, {"binder": "B5", "Ratio 197/206": 953}, {"binder": "B6", "Ratio 197/206": 973}, {"binder": "B7", "Ratio 197/206": 996}, {"binder": "B8", "Ratio 197/206": 1040}]}]}
